Consider four molecules from PMC8591536, “DNA asymmetry promotes SUMO modification of the single‐stranded DNA‐binding protein RPA” (The EMBO Journal, 2021).

Where only a bound is given, the exact number is not on record here.

For one series, the target named is T1, Siz2∆CT (Saccharomyces cerevisiae? (budding …, UniProt Q12216 1-420)).
T1 sequence: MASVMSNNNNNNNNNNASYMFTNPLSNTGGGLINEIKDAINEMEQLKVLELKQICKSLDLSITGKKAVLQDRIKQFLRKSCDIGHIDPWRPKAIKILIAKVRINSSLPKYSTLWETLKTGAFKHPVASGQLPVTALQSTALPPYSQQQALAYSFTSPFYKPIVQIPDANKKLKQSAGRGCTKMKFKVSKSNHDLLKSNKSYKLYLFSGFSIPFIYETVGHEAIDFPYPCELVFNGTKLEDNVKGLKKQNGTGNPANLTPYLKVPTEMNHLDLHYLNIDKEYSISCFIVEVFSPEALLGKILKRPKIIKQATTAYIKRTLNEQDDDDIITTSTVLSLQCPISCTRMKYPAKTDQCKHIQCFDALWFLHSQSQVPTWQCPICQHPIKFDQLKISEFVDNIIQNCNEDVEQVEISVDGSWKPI
Description: fluorescence polarization; FP: 20 mM HEPES pH 7.5, 125 mM NaCl, 0.1% Tween-20, 23°C, 50 nM DNA (RPA/SUMO-RPA on ss32: 1 nM DNA, plus 5 mM MgCl2, 1 mM DTT); EMSA: same buffer with 5 mM MgCl2 (Fig 8 also 1 mM DTT), 23°C, 6% gel in 0.5x TBE. As to conditions: protein: recombinant; tags: His6-thioredoxin removed with TEV; label: 5' 6-FAM on strand 1; blunt.

Series [1] addresses T2, RPA reconstituted with ∆WH-Rfa2: Rfa1(1–621), His6-Rfa2(1–205), Rfa3(1–122) (budding yeast, UniProt P22336 1-621; P26754 1-205; P26755 1-122).
T2 construct: Rfa1 subunit of RPA, budding yeast, residues 1-621, tagless; Rfa2 subunit of RPA, budding yeast, residues 1-205 (winged helix domain removed), noncleavable N-terminal hexahistidine tag; Rfa3 subunit of RPA, budding yeast, residues 1-122, tagless; The purification of this variant is not described on its own; also called RPA∆WH; RPA lacking the WH domain of Rfa2; source: E. coli BL21 (DE3) …
The series is described as follows: fluorescence polarisation; 50 nM 5'-fluorescein-labelled DNA in complex with RPA or RPA∆WH, serially diluted Siz2∆CT; 23°C; 20 mM HEPES pH 7.5, 125 mM NaCl, 0.1% Tween-20; apparent Kd, single-site model with ligand depletion. Conditions: both partners purified.

Series [2] deals with T3, replication protein A (RPA): Rfa1(1–621), His6-Rfa2(1–273), Rfa3(1–122) (budding yeast, UniProt P22336 1-621; P26754 1-273; P26755 1-122).
T3 construct: Rfa1 subunit of RPA, budding yeast, residues 1-621, tagless; Rfa2 subunit of RPA, budding yeast, residues 1-273, noncleavable N-terminal hexahistidine tag; Rfa3 subunit of RPA, budding yeast, residues 1-122, tagless; also called wild-type RPA; source: E. coli BL21 (DE3) CodonPlus RIL, co-expressed, purified (Ni-NTA, HiTrap Heparin, Superdex200); not shown: His6, N-terminal, kept; copies: + +
Described as above. As to conditions: both partners purified.

The target in series [3] is T2, RPA reconstituted with ∆WH-Rfa2: …. The series is described as follows: native gel or EMSA; 10 nM 6-FAM-ds20ss32 DNA pre-bound to RPA, RPA∆WH or SUMO-RPA, serially diluted full-length Siz2; 25 min at 23°C; 20 mM HEPES pH 7.5, 125 mM NaCl, 0.1% Tween-20, 5 mM MgCl2; native 6% polyacrylamide gel in 0.5x TBE; apparent Kd. Conditions: both partners purified. A general note: A gel shift assay detects complexes by their altered migration in electrophoresis.

The target in series [4] is T3, replication protein A (RPA): …. The description is as above. Conditions: both partners purified.
For another series, the target named is RPA (Rfa1/Rfa2/Rfa3) (Saccharomyces cerevisiae? (budding …, UniProt P22336;P26754;P26755 1-621;1-273;1-122)). Description: fluorescence polarization; 5 mM MgCl2; FP: 20 mM HEPES pH 7.5, 125 mM NaCl, 0.1% Tween-20, 23°C, 50 nM DNA (RPA/SUMO-RPA on ss32: 1 nM DNA, plus 5 mM MgCl2, 1 mM DTT); EMSA: same buffer with 5 mM MgCl2 (Fig 8 also 1 mM DTT), 23°C, 6% gel in 0.5x TBE. Conditions: protein: recombinant; tags: noncleavable N-terminal His6 on Rfa2; copies: 1;1;1; label: 5' 6-FAM; single strand. Background: Polarisation of emitted light reports the rotation of a fluorescent probe.
RPA (Rfa1/Rfa2/Rfa3) (Saccharomyces cerevisiae?, sequence (P22336 whole entry, chain 1 of 3): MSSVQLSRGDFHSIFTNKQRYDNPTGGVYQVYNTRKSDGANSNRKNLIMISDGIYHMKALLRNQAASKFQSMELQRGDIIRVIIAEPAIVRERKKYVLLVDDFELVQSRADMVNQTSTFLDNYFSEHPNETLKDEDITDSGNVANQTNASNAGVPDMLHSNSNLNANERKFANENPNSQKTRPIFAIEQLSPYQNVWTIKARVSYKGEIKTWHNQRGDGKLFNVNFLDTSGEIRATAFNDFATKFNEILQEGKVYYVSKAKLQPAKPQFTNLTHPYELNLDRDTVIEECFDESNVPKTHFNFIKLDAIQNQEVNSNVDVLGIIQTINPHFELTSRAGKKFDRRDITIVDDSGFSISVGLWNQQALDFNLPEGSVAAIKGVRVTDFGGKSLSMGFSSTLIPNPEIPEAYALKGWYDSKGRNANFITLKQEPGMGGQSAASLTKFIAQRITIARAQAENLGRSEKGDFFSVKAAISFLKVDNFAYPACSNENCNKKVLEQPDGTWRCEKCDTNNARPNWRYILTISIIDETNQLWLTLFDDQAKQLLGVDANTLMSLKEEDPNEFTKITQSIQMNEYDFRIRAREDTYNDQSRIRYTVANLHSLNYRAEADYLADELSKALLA
RPA (Rfa1/Rfa2/Rfa3) (Saccharomyces cerevisiae?, sequence (P26754 whole entry, chain 2 of 3): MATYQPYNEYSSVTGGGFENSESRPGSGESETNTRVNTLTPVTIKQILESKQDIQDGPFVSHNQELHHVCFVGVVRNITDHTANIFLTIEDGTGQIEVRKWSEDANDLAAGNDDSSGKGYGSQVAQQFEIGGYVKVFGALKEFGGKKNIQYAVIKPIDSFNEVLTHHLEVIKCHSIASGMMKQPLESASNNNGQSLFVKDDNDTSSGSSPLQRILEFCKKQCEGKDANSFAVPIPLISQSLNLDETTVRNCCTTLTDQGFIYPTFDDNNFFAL
RPA (Rfa1/Rfa2/Rfa3) (Saccharomyces cerevisiae?, sequence (P26755 whole entry, chain 3 of 3): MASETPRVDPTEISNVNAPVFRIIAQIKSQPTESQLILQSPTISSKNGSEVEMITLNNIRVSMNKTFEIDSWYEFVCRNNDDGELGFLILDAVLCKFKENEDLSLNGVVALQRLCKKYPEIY

T3 sequence (P22336 whole entry, chain 1 of 3, the tested form may be a part): as the sequence (P22336 whole entry, chain 1 of 3) above
T3 sequence (P26754 whole entry, chain 2 of 3, the tested form may be a part): as the sequence (P26754 whole entry, chain 2 of 3) above
T3 sequence (P26755 whole entry, chain 3 of 3, the tested form may be a part): as the sequence (P26755 whole entry, chain 3 of 3) above
T2 sequence (P22336 whole entry, chain 1 of 3, the tested form may be a part): as the sequence (P22336 whole entry, chain 1 of 3) above
T2 sequence (P26754 1-205, chain 2 of 3): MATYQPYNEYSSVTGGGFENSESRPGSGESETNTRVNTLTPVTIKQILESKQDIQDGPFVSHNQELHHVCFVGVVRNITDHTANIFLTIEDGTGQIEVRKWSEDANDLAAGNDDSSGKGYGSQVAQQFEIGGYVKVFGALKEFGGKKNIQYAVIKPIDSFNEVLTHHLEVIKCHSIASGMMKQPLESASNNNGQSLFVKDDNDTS
T2 sequence (P26755 whole entry, chain 3 of 3, the tested form may be a part): as the sequence (P26755 whole entry, chain 3 of 3) above

B1: 6-FAM-ds20 (dsDNA)
DNA 1: GCTGTAGCTAGTTTTGCTTC
DNA 2: GAAGCAAAACTAGCTACAGC
With B1, the binding result with Siz2∆CT is listed as “binds”.

B2: Siz2(1–420) (domain or fragment, budding yeast, UniProt Q12216 1-420, looked up)
chain: T1 sequence
notes: SUMO E3 ligase Siz2, budding yeast, residues 1-420 (SAP, PINIT and SP-RING domains; C-terminal region removed); also called Siz2∆CT; source: E. coli BL21 (DE3) CodonPlus RIL, purified (Ni-NTA, TEV cleavage, Superdex75); not shown: His6, N-terminal, cleaved; thioredoxin, N-terminal, cleaved
As to B2, the binding result in series [1] and in series [2] was “binds” throughout.

B3: Siz2(1–726) (enzyme, budding yeast, UniProt Q12216 1-726, looked up)
chain: MASVMSNNNNNNNNNNASYMFTNPLSNTGGGLINEIKDAINEMEQLKVLELKQICKSLDLSITGKKAVLQDRIKQFLRKSCDIGHIDPWRPKAIKILIAKVRINSSLPKYSTLWETLKTGAFKHPVASGQLPVTALQSTALPPYSQQQALAYSFTSPFYKPIVQIPDANKKLKQSAGRGCTKMKFKVSKSNHDLLKSNKSYKLYLFSGFSIPFIYETVGHEAIDFPYPCELVFNGTKLEDNVKGLKKQNGTGNPANLTPYLKVPTEMNHLDLHYLNIDKEYSISCFIVEVFSPEALLGKILKRPKIIKQATTAYIKRTLNEQDDDDIITTSTVLSLQCPISCTRMKYPAKTDQCKHIQCFDALWFLHSQSQVPTWQCPICQHPIKFDQLKISEFVDNIIQNCNEDVEQVEISVDGSWKPIHNSSAVITDTVNQNHSVKNENQGTVKQEQDYDSRNAFDTNLRNGSNHNEPEIISLDSSDDEAFIPASKSFPTHVNPRNDQLRADIFPSESEGSSDYNPNHTSTPKGSPTMDQDNYQDAFQMRSFLNQGATTNINDTPTNNSSINSFVTATNGDSRIFYNRGPSTPLLPAVLQNLTNQTEAQRNPYGPNYNTTAQDRNLLGIEGDLPPIPPVDPNSEAETELPTRTTSAAHLPPYIHVSTSGHGDDGKIRKRRHSNVSIYIPKNPYATLMKRRPQANHAIMNKTLAQTNDFNTSAQDNSEVVDLTSD
notes: SUMO E3 ligase Siz2, budding yeast, full length; cloned as Siz2(1–726), called Siz2(1–727) in the purification paragraph; also called full-length Siz2; Siz2(1–727); source: E. coli BL21 (DE3) CodonPlus RIL, purified (Ni-NTA, HiTrap Heparin, Ulp1 cleavage, Ni-NTA, Superdex200)
Consider B3, for which the binding result in series [3] and in series [4] was “binds” each time.

B4: 6-FAM-ss32 (32dT) (ssDNA)
DNA: TTTTTTTTTTTTTTTTTTTTTTTTTTTTTTTT
The Kd is the free concentration of one partner at which half of the binding sites on the other are occupied at equilibrium, for simple one-to-one binding. As to B4, the Kd with RPA (Rfa1/Rfa2/Rfa3) was under 1 nM.
